In PMC6260798 (Biochemistry, 2018):
Like-named read-outs stand apart in the source and are kept apart here.

Assays:
UreE [1] = target: T1, UreE (Helicobacter pylori, UniProt Q09064); test: ITC
T1 chain: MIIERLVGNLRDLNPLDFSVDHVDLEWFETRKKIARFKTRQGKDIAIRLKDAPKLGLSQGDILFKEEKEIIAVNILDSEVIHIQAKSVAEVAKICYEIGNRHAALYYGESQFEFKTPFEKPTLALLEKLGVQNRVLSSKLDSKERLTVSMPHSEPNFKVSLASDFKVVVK

[2] = target: T2, Helicobacter pylori UreE homodimer (UreE2) (Helicobacter pylori, UniProt Q09064 1-170); test: ITC
T2 sequence: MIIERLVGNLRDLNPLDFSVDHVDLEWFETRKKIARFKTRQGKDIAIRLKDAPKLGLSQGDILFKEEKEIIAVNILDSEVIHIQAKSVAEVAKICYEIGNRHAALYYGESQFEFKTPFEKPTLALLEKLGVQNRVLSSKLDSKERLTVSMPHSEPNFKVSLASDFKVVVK

[3] = target: T2, Helicobacter pylori UreE homodimer …; test: SEC-MALS
[4] = target: T2, Helicobacter pylori UreE homodimer …; test: ITC; remark: listed apart in the source
UreE [5] = target: T1, UreE; test: fluorescence titration

B1: HypA (protein)
chain: MHEYSVVSSLIALCEEHAKKNQAHKIERVVVGIGERSAMDKSLFVSAFETFREESLVCKDAILDIVDEKVELECKDCSHVFKPNALDYGVCEKCHSKNVIITQGNEMRLLSLEMLAE
modifications: Ni,Zn-HypA
Binder B1 has a Kd (UreE [1]) of roughly 0.0006 µM.

B2: Helicobacter pylori HypA (wild type; apo,Zn-HypA or Ni,Zn-HypA) (natural protein, UniProt P0A0U4 1-117, looked up)
chain: MHEYSVVSSLIALCEEHAKKNQAHKIERVVVGIGERSAMDKSLFVSAFETFREESLVCKDAILDIVDEKVELECKDCSHVFKPNALDYGVCEKCHSKNVIITQGNEMRLLSLEMLAE
In the case of B2, the Kd [2] is reported as 0.9 µM, the “stoichiometry N” value [2] is reported as 1.4 Sites and the “stoichiometry N” value [3] is reported as 1 HypA per UreE2. The Kd [4] was 1.2 µM and the “stoichiometry N” value [4] was 1.4 Sites.

B3: HypA (protein)
chain: MHEYSVVSSLIALCEEHAKKNQAHKIERVVVGIGERSAMDKSLFVSAFETFREESLVCKDAILDIVDEKVELECKDCSHVFKPNALDYGVCEKCHSKNVIITQGNEMRLLSLEMLAE
modifications: apo,Zn-HypA, NHS640-labelled UreE2
In the case of B3, the Kd (UreE [5]) is reported as roughly 2 µM.
